According to the supplement of paper PMC12042874:
± gives the uncertainty stated by the source.

Experiment: amyloid nucleation score (Sup35N fusion, yeast selection) (log enrichment); library NNK2; higher = more nucleation; inactive = no reads after selection
How it was run: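 Nucleation score is defined as the DiMSum log enrichment of output over input reads, with centring on the mode score of non-aggregating sequences. A minimum of 100 input reads was required for each sequence. Reads came from Illumina sequencing of plasmid inserts from psi-negative yeast expressing Sup35N fused to peptides of 20 random codons, induced with 100 μM copper sulfate for 24 hours and grown 7 days at 30°C on medium lacking adenine and uracil.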

Substance | amyloid nucleation score
KNIAISSRVADAGFWL | 2.31 ± 0.093
KNVLLKTLVHWLGRGMSAPG | 0.165 ± 1
KPEVRVEMQCNYVAWYTDMI | -0.61 ± 0.37
KPGMRNNYFLAFGFYCTCTR | 1.59 ± 0.21
KPGRYRDVIRFLSDLLECNG | inactive
KPNFIRLYRIKFNKLGLGIT | -0.855 ± 1
KRFAIPEHTLTTYRQLA | 0.082 ± 0.42
KRFIESNIVIQSDLTSLRRK | -0.184 ± 1.1
KRMKRLVCGTRVDMYRGSLW | -0.222 ± 0.33
KRTWFERLWSSSNRVLGCLC | 4.27 ± 0.051
KRWCRGSE | 0.229 ± 0.24
KSASCKPIMSYPKVLPS | 0.208 ± 0.8
KSHAPFVLMCRIGVGSKCGK | 3.81 ± 0.09
KSIAGNC | -1.48 ± 0.78
KSIVNL | 0.465 ± 0.41
KSKLRCTFYSDAL | -0.219 ± 0.27
KSLLWHLQLLAKT | 0.174 ± 0.63
KSMLLMIMSSFGSDIWHITS | -0.337 ± 1.1
KSRIDSESGGGQSFS | -0.805 ± 0.63
KSRNYIFSGYELVASPSSVK | inactive
KSVKIVSSAMKGWIHSTYSR | -0.316 ± 0.28
KSVYLSIGDILAFFSIVLLY | inactive
KSWHPRFQSDMKFHLFCLVV | -0.19 ± 0.56
KTKVL | 0.348 ± 0.65
KTLWPGTWGGLITRVWWYTR | 0.471 ± 0.18

Substance | amyloid nucleation score
KTPGSHVGLWSMPGRSYPSA | 0.401 ± 0.45
KTRHKVLRKDL | -1.64 ± 0.54
KVAFLLRVGAYFDSWWHRRV | 0.166 ± 0.39
KVALINYSLPMYFSVVTGLY | 2.97 ± 0.071
KVALVHAGLKNFWRSSLWRL | 1.11 ± 0.41
KVARGVCYCRFSL | inactive
KVFNSLASYSSIDLWCVVAG | inactive
KVGNGRDCIMLTVSCA | 0.748 ± 0.23
KVKSWCTGLLGA | 0.075 ± 0.76
KVLATMGDIGVVLSVMLVPV | 1.33 ± 0.3
KVLCWLRVRYLKGLGQGSAC | 0.358 ± 0.31
KVLVRHLRCAISPSF | 0.256 ± 1
KVTSMHVFIESWGV | 0.082 ± 0.79
KVVIYGCSS | -0.183 ± 0.65
KWCPLFKGSIGFSFLVHTMK | -1.26 ± 1.1
KWITVYETVNCMSGWFIQDL | 6.622 ± 0.033
KWVVKMDVGCVPSQTRRGSW | 1.05 ± 0.4
KYCMRDDSSSLMYLWGCTRG | -0.168 ± 0.29
KYFRICRVYLNTLLPLVTLV | inactive
KYSAQIL | 0.172 ± 0.33
KYSCTLVPFLLARFDLGSWG | -0.112 ± 0.34
KYSVMLALLEPIRWTWLIQF | 0.323 ± 0.62
KYTGNFGAVSL | 0.22 ± 0.65
KYVGSWITTDVSFECTVI | -0.46 ± 1
LACIPGGKVNSPLGWHGFRD | 0.057 ± 1.1

Substance | amyloid nucleation score
LADQSYKPAWLFPGSTSVLV | 0.078 ± 0.74
LADTGA | 0.108 ± 0.42
LAFPCFRVSGYESYGFVRKL | 0.436 ± 0.31
LAFTFRSTRRTTSHSEVSSS | 1.38 ± 0.43
LAGLYYVGVVENGMDMQDRK | -0.329 ± 0.29
LAHGG | 3.16 ± 0.095
LAHVVNIVCFNF | 7.836 ± 0.026
LAKADPWHLKMLFSAMLRQD | 0.332 ± 0.26
LALSWRNDSYNLKNVLRLLG | -1.16 ± 0.28
LANFGIIVWCCTCFYDD | 8.268 ± 0.039
LANLTSWSILMAKRRLRLTL | 1.06 ± 0.33
LARSLSVNQYKPNLLFVGCD | -1.52 ± 1.1
LASAFG | -0.792 ± 0.79
LASFFCFGIINTAC | -0.019 ± 0.17
LASLSDFPFYLTWWS | -0.157 ± 0.45
LASTDTWHCVGGEFHKSA | -0.571 ± 0.28
LAVLGIYDTLLYCHTVLYEI | -0.302 ± 0.36
LAWSVLNMFRKVAFN | 0.089 ± 1.1
LAYIARR | -0.035 ± 0.76
LAYLYTCLLLWSGSCNMTQV | inactive
LCCGSLDIYWFVFFF | 1.63 ± 0.25
LCCRCIKVIAALKLNIENHQ | 3.65 ± 0.095
LCDPLLVKNCRLRLTVLWGM | -0.057 ± 0.63
LCGLSTLLFFKMDV | 0.716 ± 0.6
LCIYFICSGLVRRLEWVG | -0.871 ± 0.3

Substance | amyloid nucleation score
LCLVQLSDSCNQ | 7.917 ± 0.055
LCNGGWIIRRADVSGVTNVE | -0.09 ± 0.24
LCNYLFSFEQMRNN | -0.124 ± 0.42
LCRDCPNRVQLCQLL | -0.684 ± 0.54
LCSSVLGGNRETAECFRFDQ | -0.67 ± 0.34
LCSTG | 0.815 ± 0.53
LCTGTCDTSAHVSSIYKFRD | -0.712 ± 1.1
LCVSAVLKLVGNLWDDEREC | -0.091 ± 0.79
LCWCWKSWHNARRWTSWRMF | 0.13 ± 0.56
LCWPIFNFVFVSNPMLKLRL | inactive
LCYSFYPQSVKSFEFPNYFY | inactive
LDDSYPCFASIITI | 1.01 ± 0.41
LDIYLLDMLWPLCAVLSNIG | -0.541 ± 0.38
LDNACSQGGGDFRLSLS | -0.773 ± 0.55
LDTARVNGDSYWSL | 3.57 ± 0.11
LDTHRPPYQDRVWLTRSANT | 1.79 ± 0.24
LDTVPTWFYQVMWGYDWVLK | 2.81 ± 0.11
LDWHAEHKGSCSFPDNEMLS | 0.394 ± 0.56
LELHMGNLSSSTAYWLRRYS | -0.426 ± 0.48
LFADGFGSRINDCNTVSMF | 0.881 ± 0.47
LFALLK | -0.005 ± 0.54
LFARWTFDNFSLRVVLQTRI | -0.861 ± 0.25
LFCVRSRLGVGCYRIWG | 5.364 ± 0.046
LFDGASMSRRIVMWDMGWWG | 4.54 ± 0.046
LFDLDSESRMTPQGGLRNAT | -0.665 ± 0.54

Substance | amyloid nucleation score
LFEAWSIYIYFASLKGTAGG | -1.26 ± 1.1
LFEMP | 0.728 ± 0.74
LFFALSMCSIF | 6.348 ± 0.032
LFGFLTTRVPWIFSWMVPTA | -0.003 ± 0.44
LFGYGQEDGQWCGDEFETVK | 0.769 ± 0.26
LFHCLSELLVGSSNSRFVCE | 0.456 ± 0.42
LFLRAHILGTVTCIRDFAPG | 1.14 ± 0.18
LFLSLKYPLSYYASTVDNLA | 0.6 ± 0.74
LFMLGMSAQLVFAFSLLGGI | 2.62 ± 0.078
LFMNRHVYVLQVVEMYKRQT | -1.07 ± 1.1
LFRCIKDMAY | 0.202 ± 0.51
LFRQEAMIPL | 0.594 ± 0.66
LFRWM | 3.92 ± 0.06
LFSHFYSYDY | -0.317 ± 1.1
LFSHL | -1.4 ± 0.54
LFSKDVSRTLGPACFICEGT | 2.78 ± 0.072
LFVDKMCERDFYFVSSHRYR | 0.306 ± 0.8
LFVRAFEPSGDHLCYQYVCL | -0.566 ± 0.38
LFWFIYGSYRTVRACGRYSN | 0.516 ± 0.64
LGIASLQNGSGIGAWQAY | 0.04 ± 0.76
LGIVHGNNY | -1.14 ± 0.76
LGLLFAINTVLSSQLR | 7.703 ± 0.076
LGMSGCVCSYVYLRGFGLIL | -0.658 ± 0.37
LGPEYTWQI | 0.548 ± 0.42
LGQSCTYQCQQLCSLSHNRV | -0.214 ± 1.1

Substance | amyloid nucleation score
LGQVTDLSILCSSDQSLMVC | -0.075 ± 0.26
LGRCY | 2.72 ± 0.062
LGRQWFRIARGG | 0.654 ± 0.32
LGTEAEWCVGLMCSVKRYQM | 4.58 ± 0.068
LGYFTLSFS | 0.627 ± 0.81
LGYLIPNDEYFILWVIVCWN | -0.024 ± 1
LHDLDWYSGILIQFDSDMRW | 1.37 ± 0.15
LHFGAGLTSSVCPSLYSQ | -0.931 ± 1.1
LHFTYCGSVMNVANDMVFVQ | 0.106 ± 1
LHGQVYMIQG | 2.17 ± 0.13
LHHFSVTYNSITFCLNFPFR | 4.11 ± 0.065
LHQGSVCWDWLPVYEVTVLG | 0.049 ± 0.44
LHQTV | 0.79 ± 0.57
LHTTCLFSRWNVFL | 2.3 ± 0.076
LIARSLGFKNVWS | -0.575 ± 0.54
LIFRSVSVSFIPLLMKDGNG | -0.042 ± 0.74
LIKLMGLV | 0.466 ± 0.43
LILMAENL | -0.92 ± 1.1
LINWVVVLYG | 1.9 ± 0.14
LIRGVII | 0.21 ± 0.54
LISTELGPTSFYLHKSLSSR | -1.02 ± 0.62
LITIAIAARCSRMIGLQLFL | -0.495 ± 0.32
LIVKLANTGRSQHHIRSWLS | -0.212 ± 0.38
LIWGTPYKAW | 0.859 ± 0.41
LIYIICVSLFSRVVMVIANF | -1.25 ± 0.78

Substance | amyloid nucleation score
LKARIACADYIRSGIILLCS | 2.2 ± 0.08
LKCRVITQSCIPSSINRLDG | -0.02 ± 0.22
LKHKHRNMRITCSASI | -0.269 ± 0.25
LKIFLLIVVGDDFMKSKYCP | -0.612 ± 0.64
LKKFVPPELRSADVDRKCSK | inactive
LKMIWIYSFCLILVLYLRQA | 0.148 ± 1
LKRYKVRQFSTCLWAGAYSQ | 0.407 ± 0.23
LKSSNRGNVRKRLLGEDEGT | 0.245 ± 0.37
LKWDFRIYTTSWAAKKQGME | 0.095 ± 0.37
LLACLKGTSGAGRIYAYLMT | -0.096 ± 0.3
LLAFFMWSLRQRDSGTLLLD | -0.63 ± 0.52
LLAFHCGHQMCFGVINMSTG | 3.83 ± 0.065
LLALTFSTETQGRHTKCHSL | 4.07 ± 0.094
LLAVFTSCYCQECYVEPALV | 5.55 ± 0.07
LLCCIIIIGMVLGLMTDPEW | -0.781 ± 0.76
LLCMVIMVGFYSRSAGNTDQ | 0.696 ± 0.6
LLCVGHFFLQ | inactive
LLDWTLLSNST | inactive
LLETMAK | inactive
LLFPCFVTRSLVS | -0.871 ± 0.32
LLFPLGISHAYMGRFFFRMV | -0.266 ± 1.1
LLHAVQDHVGLPTVYRRCSR | 2.79 ± 0.11
